In patent publication US20250257148A1 (CROSSLINK THERAPEUTICS, published 2025):

Columns and labels:
[1] = molecular target: the molecule itself; experiment: size exclusion chromatography, 1 mM ATP against 1 mM ADP; homodimerization
Method: (§1) To evaluate the behavior of the constructs in the presence of ATP and ADP samples of the purified protein (1 mg each) were buffer-exchanged on PD-10 columns (Cytiva 17085101) according to manufacturer instructions. For the buffer exchange PD-10 desalting columns were equilibrated with target buffer (20 mM Tris-Cl pH 8.0, 50 mM NaCl, 5 mM MgCl₂, 10% glycerol) containing either 1 mM ATP or 1 mM ADP. One milligram (100 μl of 10 mg/ml stock) of protein was added to each column along with 2.4 ml of target buffer, the column was centrifuged at 1000×g for 2 minutes in a 50-ml conical tube, and the eluate was collected. Buffer-exchanged proteins were then concentrated to 0.5 ml (˜60 μM) and loaded onto a Superdex S200 Increase column (Cytiva) equilibrated in the appropriate buffer containing ATP or ADP and eluted at 0.5 ml/min.

[2] = molecular target: the molecule itself; experiment: size exclusion chromatography, 1 mM ATP against 1 mM ADP; ATP mediated shift read as homodimerization
Method: as §1

Protein	binding result [1]	binding result [2]
Construct 157: Hisx8-anti-BCMA VHH-(G4S)2-CH1-CH2-TAP1 NBD (Cys-less; modified D-helix; D668N)-(G4S)2-anti-CD3 VHH (other, Single polypeptide expressed in E. coli) MHHHHHHHHEVQLVESGGGLVQAGGSLRLSCAASGRTFTMGWFRQAPGKEREFVAAISLSPTLAYYAESVKGRFTISRDNAKNTVVLQMNSLKPEDTALYYCAADRKSVMSIRPDYWGQGTQVTVSSGGGGSGGGGSETEFFQQNQTGGGGSGLQTVRSFGGGGGSGGSGLLTPLHLEGLVQFQDVSFAYPNRPDVLVLQGLTFTLRPGEVTALVGPNGSGKSTVAALLQNLYQPTGGQLLLDGKPLPQYEHRYLHRQVAAVGQEPQVFGRSLQENIAYGLTQKPTMEEITAAAVKSGAHSFISGLPQGYDTEVDEAGSQLSGGQRQAVALARALIRKPSVLILDNATSALDAGNQLRVQRLLYESPERYSRSVLLITQHLSLVEQADHILFLEGGAIREGGTHQQLMEKKGSYWAMVQAPADAPEGGGGSGGGGSGGGGSQVQLVESGGGLVQPGGSLRLSCAASGSIFSANTMGWYRQAPGKQRELVAGMNTSGSTVYGDSVKGRFTISRDNAKNIAYLQMNSLIPEDTAVYYCTLVQRGPNYWGQGTQVTVSS	binds	–
Construct 156: Hisx8-anti-BCMA VHH-(G4S)2-anti-CD3 VHH-(G4S)2-CH1-CH2-TAP1 NBD (Cys-less; modified D-helix; D668N) (other, Single polypeptide expressed in E. coli; Here CH1-CH2 means Coupling Helix 1 and Coupling Helix 2 (the CAP)) MHHHHHHHHEVQLVESGGGLVQAGGSLRLSCAASGRTFTMGWFRQAPGKEREFVAAISLSPTLAYYAESVKGRFTISRDNAKNTVVLQMNSLKPEDTALYYCAADRKSVMSIRPDYWGQGTQVTVSSGGGGSGGGGSQVQLVESGGGLVQPGGSLRLSCAASGSIFSANTMGWYRQAPGKQRELVAGMNTSGSTVYGDSVKGRFTISRDNAKNIAYLQMNSLIPEDTAVYYCTLVQRGPNYWGQGTQVTVSSGGGGSGGGGSETEFFQQNQTGGGGSGLQTVRSFGGGGGSGGSGLLTPLHLEGLVQFQDVSFAYPNRPDVLVLQGLTFTLRPGEVTALVGPNGSGKSTVAALLQNLYQPTGGQLLLDGKPLPQYEHRYLHRQVAAVGQEPQVFGRSLQENIAYGLTQKPTMEEITAAAVKSGAHSFISGLPQGYDTEVDEAGSQLSGGQRQAVALARALIRKPSVLILDNATSALDAGNQLRVQRLLYESPERYSRSVLLITQHLSLVEQADHILFLEGGAIREGGTHQQLMEKKGSYWAMVQAPADAPEGGGGS	–	binds
Construct 159: CH1-CH2-TAP1 NBD (Cys-less; modified D-helix; D668N)-(G4S)2-anti-CD3 VHH-(G4S)2-anti-BCMA VHH-Hisx8 (other, Single polypeptide expressed in E. coli) METEFFQQNQTGGGGSGLQTVRSFGGGGGSGGSGLLTPLHLEGLVQFQDVSFAYPNRPDVLVLQGLTFTLRPGEVTALVGPNGSGKSTVAALLQNLYQPTGGQLLLDGKPLPQYEHRYLHRQVAAVGQEPQVFGRSLQENIAYGLTQKPTMEEITAAAVKSGAHSFISGLPQGYDTEVDEAGSQLSGGQRQAVALARALIRKPSVLILDNATSALDAGNQLRVQRLLYESPERYSRSVLLITQHLSLVEQADHILFLEGGAIREGGTHQQLMEKKGSYWAMVQAPADAPEGGGGSGGGGSGGGGSQVQLVESGGGLVQPGGSLRLSCAASGSIFSANTMGWYRQAPGKQRELVAGMNTSGSTVYGDSVKGRFTISRDNAKNIAYLQMNSLIPEDTAVYYCTLVQRGPNYWGQGTQVTVSSGGGGSGGGGSEVQLVESGGGLVQAGGSLRLSCAASGRTFTMGWFRQAPGKEREFVAAISLSPTLAYYAESVKGRFTISRDNAKNTVVLQMNSLKPEDTALYYCAADRKSVMSIRPDYWGQGTQVTVSSHHHHHHHH	–	binds
